Measurements reported in US20240301062A1 (BEIGENE SWITZERLAND, published 2024).
Values joined by “and” are separate entries in the source; they are usually repeats but may differ in a detail not shown here. Identical values can stand only once. Like-named read-outs stand apart in the source and are kept apart here.

Tests used:
human claudin 6 (CLDN6) [1] = molecular target: T1, human claudin 6 (CLDN6) (human, UniProt P56747 1-220); experiment: FACS, PA-1 cells (endogenous CLDN6)
T1 construct: also called human CLDN6; hCLDN6
T1 sequence: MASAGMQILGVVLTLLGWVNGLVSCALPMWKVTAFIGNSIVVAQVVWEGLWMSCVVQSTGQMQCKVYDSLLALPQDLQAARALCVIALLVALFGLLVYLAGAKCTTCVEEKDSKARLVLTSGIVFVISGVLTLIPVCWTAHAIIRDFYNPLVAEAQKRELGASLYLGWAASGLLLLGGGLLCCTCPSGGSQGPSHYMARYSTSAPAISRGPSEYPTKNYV
Description: (§1) For affinity determination, CLDN6 over-expressing HEK293T cells and cancer cell line PA-1 which express high levels of human CLDN6 were used to evaluate the binding activity of BG87P related engineering variants. Live cells were seeded in 96-well plate, and were incubated with a series of dilutions of chBG87P and engineered variants thereof. Goat anti-human IgG was used as second antibody to detect antibody binding to the cell surface. EC50 values for dose-dependent binding to CLDN6 expressing cell lines were determined by fitting the dose-response data to the four-parameter logistic model with GraphPad Prism. Cell binding activity of 1st round of BG87P humanization variants against HEK293T/human CLDN6 were compared to chBG87P and shown in FIG. 1A.

human claudin 6 (CLDN6) [2] = molecular target: T1, human claudin 6 (CLDN6); experiment: flow cytometry on HEK293T/human CLDN6 cells, goat anti-human IgG secondary, MFI(PE)
Description: as §1

cyno CLDN6 [3] = molecular target: T2, cyno CLDN6 (cyno); experiment: flow cytometry on CHOK1/cyno CLDN6 cells, MFI(PE)
T2 construct: whole, on cells; also called cynomolgus CLDN6

cyno CLDN6 [4] = molecular target: T2, cyno CLDN6; experiment: FACS, HEK293T_cyno-CLDN6 cells
human claudin 6 (CLDN6) [5] = molecular target: T1, human claudin 6 (CLDN6); experiment: FACS, HEK293T/human CLDN6 cells
Description: as §1
Beginning with the chBG87P antibody and BG87P-Bz0, several additional amino acid changes in the CDR regions of both VH and VL were made to further improve the biophysical properties for therapeutics use in human. The considerations included removing post translational modifications (PTM), improved heat stability (Tm), while maintaining binding activities, the resulted variants are BG87P-m1 (VH SEQ ID NO: 31 and VL SEQ ID NO: 8), BG87P-m2 (VH SEQ ID NO: 32 and VL SEQ ID NO: 8), BG87P-m3 (VH SEQ ID NO: 33 and VL SEQ ID NO: 8), and BG87P-m4 (VH SEQ ID NO: 34 and VL SEQ ID NO: 8) and BG87P-m5 (VH SEQ ID NO: 35 and VL SEQ ID NO: 14), BG87P-m6 (VH SEQ ID NO: 36 and VL SEQ ID NO 14), BG87P-m7 (VH SEQ ID NO: 37 and VL SEQ ID NO: 14), and BG87P-m8 (VH SEQ ID NO: 38 and VL SEQ ID NO: 14). Cell binding activity of chBG87P and BG87P-Bz0 related PTM removal variants against HEK293T/human CLDN6 was compared with chBG87P and BG87-Bz0, respectively ([…]). Cell binding affinity (EC50) and Emax (MFI) was normalized to chBG87P for directly comparison and ranking (Table 7).

human claudin 6 (CLDN6) [6] = molecular target: T1, human claudin 6 (CLDN6); experiment: FACS, HEK293T-hCLDN6 cells
human claudin 6 (CLDN6) [7] = molecular target: T1, human claudin 6 (CLDN6); experiment: FACS, HEK293-hCLDN6 cells
human claudin 9 (CLDN9) = molecular target: T3, human claudin 9 (CLDN9) (human, UniProt O95484 1-217); experiment: flow cytometry on HEK293T/human CLDN9 cells, MFI(PE)
T3 construct: also called human CLDN9
T3 sequence: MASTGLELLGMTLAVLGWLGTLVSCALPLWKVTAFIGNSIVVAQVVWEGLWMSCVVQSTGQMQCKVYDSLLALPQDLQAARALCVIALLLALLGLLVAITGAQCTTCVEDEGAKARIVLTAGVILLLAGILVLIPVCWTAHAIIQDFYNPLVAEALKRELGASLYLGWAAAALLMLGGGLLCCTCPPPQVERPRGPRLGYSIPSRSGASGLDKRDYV

cyno CLDN6 [8] = molecular target: T2, cyno CLDN6; experiment: FACS, HEK293T-cyno-CLDN6 cells
mouse CLDN6 = molecular target: T4, mouse CLDN6 (mouse, UniProt Q9Z262 1-219); experiment: flow cytometry on CHOK1/mouse CLDN6 cells, MFI(PE)
T4 construct: whole, on cells
T4 sequence (looked up): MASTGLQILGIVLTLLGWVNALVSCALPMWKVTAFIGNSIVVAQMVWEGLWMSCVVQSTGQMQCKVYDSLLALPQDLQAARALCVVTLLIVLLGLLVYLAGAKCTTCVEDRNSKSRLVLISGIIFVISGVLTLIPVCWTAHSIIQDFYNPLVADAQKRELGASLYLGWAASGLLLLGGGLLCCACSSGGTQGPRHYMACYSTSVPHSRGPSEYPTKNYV

[9] = molecular target: T5, human native CD3 on live cells (HuT78, Jurkat) (human, UniProt P07766 23-207; P09693 23-182; P04234 22-171); experiment: FACS, HuT78 cells
T5 construct: whole, on cells; also called human CD3
T5 sequence (P07766 23-207, chain 1 of 3): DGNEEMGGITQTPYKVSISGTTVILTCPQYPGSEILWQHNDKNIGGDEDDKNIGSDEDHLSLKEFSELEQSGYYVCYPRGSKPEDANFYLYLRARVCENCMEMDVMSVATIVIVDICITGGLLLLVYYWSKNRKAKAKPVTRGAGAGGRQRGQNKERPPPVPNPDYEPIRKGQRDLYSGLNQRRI
T5 sequence (P09693 23-182, chain 2 of 3): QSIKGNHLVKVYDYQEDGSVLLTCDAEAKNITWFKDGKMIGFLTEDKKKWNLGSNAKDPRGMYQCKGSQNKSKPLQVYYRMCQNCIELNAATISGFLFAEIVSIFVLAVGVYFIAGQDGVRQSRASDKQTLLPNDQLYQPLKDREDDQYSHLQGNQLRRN
T5 sequence (P04234 22-171, chain 3 of 3): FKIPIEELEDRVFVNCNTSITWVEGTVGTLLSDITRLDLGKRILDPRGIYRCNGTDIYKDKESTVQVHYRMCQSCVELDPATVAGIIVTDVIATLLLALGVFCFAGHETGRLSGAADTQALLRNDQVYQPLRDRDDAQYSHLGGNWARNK
Description: (§2) For affinity determination, antibodies were captured by anti-human Fc surface, and used in the affinity-assay based on surface plasmon resonance (SPR) technology. The binding activity of humanized sp34 to bind native CD3 on live cells was evaluated using HuT78 cells in a FACS based assay. Live HuT78 cells were seeded in 96-well plate, and were incubated with a series of dilutions of chimeric or humanized sp34. Mouse anti-Human IgG was used as second antibody to detect antibody binding to the cell surface. EC50 values for dose-dependent binding to human native CD3 were determined by fitting the dose-response data to the four-parameter logistic model with GraphPad Prism.

CD3ε (SPR analyte) [10] = molecular target: T6, CD3ε (SPR analyte) (UniProt P07766 23-126, limits assumed); experiment: SPR, antibody captured by anti-human Fc
T6 sequence (P07766 23-126 limits assumed): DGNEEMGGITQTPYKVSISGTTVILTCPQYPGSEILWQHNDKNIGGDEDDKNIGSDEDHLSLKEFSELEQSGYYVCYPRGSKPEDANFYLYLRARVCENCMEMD
Description: as §2

CD3ε (SPR analyte) [11] = molecular target: T6, CD3ε (SPR analyte); experiment: SPR, antibody captured by anti-human Fc; remark: listed apart in the source
Description: as §2

[12] = molecular target: T5, human native CD3 on live cells (HuT78, …); experiment: flow cytometry on live HuT78 cells, mouse anti-human IgG secondary, MFI
Description: as §2

[13] = molecular target: T5, human native CD3 on live cells (HuT78, …); experiment: as above; remark: listed apart in the source
Description: as §2

[14] = molecular target: T5, human native CD3 on live cells (HuT78, …); experiment: FACS, HuT78 cells; remark: listed apart in the source
Description: as §2

CD3ε (SPR analyte) [15] = molecular target: T6, CD3ε (SPR analyte); experiment: SPR

Row | Binder | EC50 (human claudin 6 (CLDN6) [1]) | Emax ratio to BG87P (human claudin 6 (CLDN6) [1]) | EC50 (read off the curve) (human claudin 6 (CLDN6) [2]) | EC50 (read off the curve) (cyno CLDN6 [3]) | EC50 (cyno CLDN6 [4]) | EC50 (human claudin 6 (CLDN6) [5]) | Emax ratio to BG87P (human claudin 6 (CLDN6) [5]) | Top MFI Mean (human claudin 6 (CLDN6) [5]) | FACS Emax ratio to BG87P (human claudin 6 (CLDN6) [6]) | FACS-Ec50 ratio to BG87P (human claudin 6 (CLDN6) [7]) | FACS Emax ratio to BG87P (cyno CLDN6 [8]) | binding result (mouse CLDN6) | EC50 [9] | Kd (CD3ε (SPR analyte) [10]) | Kd (CD3ε (SPR analyte) [11]) | koff (CD3ε (SPR analyte) [11]) | kon (CD3ε (SPR analyte) [11]) | EC50 (read off the curve) [12] | EC50 (read off the curve) [13] | EC50 [14] | other results
1 | chimeric BG87P antibody (chBG87P) (antibody, V domains shown) VH: QIQLQQSGPELVKPGASVKISCKASGYSFTDYHINWVKQRPGQGLEWIGWIYPGSGYTKYNEKFKVKATLTVDTSSSTAYMHLTSLTSEDSAVYFCARSGIYHYVSSYYFDHWGQGTTLTVSS VL: DIVMTQSHTFMSTSVGDRVSITCKASQDVGTAVAWYQQKPGQSPKLLIYWASTRHTGVPDRFTGSGSGTDFTLTISNVQSEDLADYFCQQYSSYTFGGGTKLEIK | 8.33 nM | 1 ratio | ~10 nM | ~7 nM | 7.2 nM | 2.72 nM | 1 ratio | 192000 MFI | 1 ratio | 1 ratio | 1 ratio | – | – | – | – | – | – | – | – | – | Top MFI Mean (human claudin 6 (CLDN6) [1]): 125000 MFI; binding result (human claudin 9 (CLDN9)): no binding (tested: about 250 nM (log 2.4))
2 | BG87P-21 (antibody, V domains shown) VH: QVQLVQSGAEVKKPGASVKVSCKASGYSFTDYHINWVRQAPGQRLEWMGWIYPGSGYTKYNEKFKGRVTITRDTSASTAYMELSSLRSEDTAVYYCARSGIYHYVSSYYFDHWGKGTTVTVSS VL: DIQMTQSPSTLSASVGDRVTITCKASQDVGTAVAWYQQKPGKAPKLLIYWASTRHTGVPSRFSGSGSGTEFTLTISSLQPDDFATYYCQQYSSYTFGGGTKVEIK | 2.8 nM and 2.62 nM | 0.61 ratio | ~10 nM | ~9 nM | 8.9 nM | 3.07 nM | 0.78 ratio | 149000 MFI | 0.66 ratio | 0.91 ratio | 0.8 ratio | binds | – | – | – | – | – | – | – | – | –
3 | BG87P-33 (antibody, V domains shown, Framework-swapped variant; also called BG87-33) VH: EVQLQESGGGLVQPGGSLRLSCAASGYSFTDYHINWVRQAPGKGLEWVSYIYPGSGHTKYNEKFKGRFTISRDTSKNTAYLQMNSLRAEDTAVYYCARSGIYHYVSSYYFDHWGQGTLVTVSS VL: DIQMTQSPSTLSASVGDRVTITCKASQDAGSAVAWYQQKPGKAPKLLIYWASTRHTGVPSRFSGSGSGTEFTLTISSLQPDDFATYYCQQYSSYTFGGGTKVEIK | – | – | – | – | 25.8 nM | – | – | – | 0.91 ratio | 2.45 ratio | 0.75 ratio | binds | – | – | – | – | – | – | – | – | –
4 | chimeric sp34 (ch-sp34) (antibody, V domains shown) VH: EVQLVESGGGLVQPKGSLKLSCAASGFTFNTYAMNWVRQAPGKGLEWVARIRSKYNNYATYYADSVKDRFTISRDDSQSILYLQMNNLKTEDTAMYYCVRHGNFGNSYVSWFAYWGQGTLVTVSS VL: QAVVTQESALTTSPGETVTLTCRSSTGAVTTSNYANWVQEKPDHLFTGLIGGTNKRAPGVPARFSGSLIGDKAALTITGAQTEDEAIYFCALWYSNLWVFGGGTKLTVL | – | – | – | – | – | – | – | – | – | – | – | – | 1.9 nM | 2.3 nM | 2.3 nM | 0.000496 s⁻¹ | 216000 M⁻¹ s⁻¹ | ~0.4 µg/mL | ~0.3 µg/mL | 2.49 nM | koff (CD3ε (SPR analyte) [10]): 0.000496 s⁻¹; kon (CD3ε (SPR analyte) [10]): 216000 M⁻¹ s⁻¹
5 | humanized sp34 BG53P (antibody, V domains shown, also called hu-sp34) VH: EVQLVESGGGLVQPGGSLRLSCAASGFTFNTYAMNWVRQAPGKGLEWVARIRSKYNNYATYYADSVKDRFTISRDDAKSSLYLQMNSLRAEDTAMYYCVRHGNFGNSYVSWFAYWGQGTLVTVSS VL: QAVVTQSPATLSVSPGERATLSCRSSTGAVTTSNYANWVQEKPGQLFTGLIGGTNKRAPGIPARFSGSLSGDEATLTISSLQSEDFAIYFCALWYSNLWVFGGGTKVEIK | – | – | – | – | – | – | – | – | – | – | – | – | 1.8 nM | 2.65 nM | 4.58 nM | 0.000484 s⁻¹ | 106000 M⁻¹ s⁻¹ | ~0.3 µg/mL | ~0.3 µg/mL | 1.72 nM | koff (CD3ε (SPR analyte) [10]): 0.000525 s⁻¹; kon (CD3ε (SPR analyte) [10]): 198000 M⁻¹ s⁻¹
6 | humanized sp34 BG56P (antibody, V domains shown) VH: EVQLVESGGGLVQPGGSLRLSCAASGFTFNTYAMNWVRQAPGKGLEWVARIRSKYNNYATYYADSVKDRFTISRDDAKNSLYLQMNSLRAEDTAVYYCVRHGNFGNSYVSWFAYWGQGTLVTVSS VL: EIVLTQSPATLSVSPGERATLSCRSSTGAVTTSNYANWVQQKPGQAPRGLIGGTNKRAPGIPARFSGSLSGDEATLTISSLQSEDFAVYYCALWYSNLWVFGGGTKVEIK | – | – | – | – | – | – | – | – | – | – | – | – | 4.69 nM | – | 7.06 nM | 0.000325 s⁻¹ | 46000 M⁻¹ s⁻¹ | ~0.7 µg/mL | ~0.7 µg/mL | 4.69 nM | Kd (CD3ε (SPR analyte) [15]): 7.06 nM; koff (CD3ε (SPR analyte) [15]): 0.000325 s⁻¹; kon (CD3ε (SPR analyte) [15]): 46000 M⁻¹ s⁻¹
